{"source": "the DeepSol protein solubility set"}
{"experiment": "soluble on expression in E. coli; label from the status in PepcDB or PDB records"}
{"sequence": "MAAFSVHILGCGSALPTTHHHPSSQVIDLRDKLYMIDCGEGVQRQFRHEKLHFGRLIHIFISHLHGDHCFGLPGFISTLGLLGRTGTLHVHGPEGIERFLSPILEQFCHRMPYQVEIHTIDASRHALVHEDKSVKVYSIPLSHRIPAVGYLFEEKCRARHLNKAAAEFYNIPLAEYPLIIEGSDYTTPDGRIIPNRHLTTPGTPPRRYAYCSDTEFCPSIVPIIQGVDLLYHEATFMEEDRARAKETFHSTAKEAAEIARQAGAKRLLIGHYSGRYKDVQGLLEEAQSVFKPTIAANERMRIDL", "soluble on expression in E. coli": "not soluble"}
{"sequence": "MAAINTKVKKAVIPVAGLGTRMLPATKAIPKEMLPLVDKPLIQYVVNECIAAGITEIVLVTHSSKNSIENHFDTSFELEAMLEKRVKRQLLDEVQSICPPHVTIMQVRQGLAKGLGHAVLCAHPVVGDEPVAVILPDVILDEYESDLSQDNLAEMIRRFDETGHSQIMVEPVADVTAYGVVDCKGVELAPGESVPMVGVVEKPKADVAPSNLAIVGRYVLSADIWPLLAKTPPGAGDEIQLTDAIDMLIEKETVEAYHMKGKSHDCGNKLGYMQAFVEYGIRHNTLGTEFKAWLEEEMGIKK", "soluble on expression in E. coli": "soluble"}
{"sequence": "MAAKHVLFSTDARQKMLSGVNLLANAVKVTLGPKGRHVVLNKSYGAPTITKDGVSVAKEIELADKFENMGAQMLKQVASKANDEAGDGTTTATVLAQALINEGMKAVAAGMNPMDLKRGIDKAVSAAVEKLHQLAKPCSDTQSITQVGAISANSDHAIGEIIAQAMEKVGRNGVITVEEGQALQNELSVVEGMQFDRGYLSPYFINQPKAGCVELENPYVLLVDKKISHIRELLPILESVAKASRSLLIIAEDVDGDALATLVVNSMRGIIKVAAVKAPGFGEQRKAMLEDIAALTAGRVISEEIGLELEKVTLDDLGSAKKVTINKDNTTIVDGAAEPSALQDRIAQIQHQLEHTTSQYDRDKLQQRIAKLSGGVAVIKIGAATEVEMKEKKDRVDDALHATRAAVEEGIVAGGGVALLKIANELSNLQGDNDDQNVGIRIALRAMEEPLRQIAINAGDEASVIANQVKTGDEHYGYNAATGQFGNMLEMGILDPAKVTRSALQFAASIAGLMITTEAMVSEVDKESAA", "soluble on expression in E. coli": "not soluble"}
{"sequence": "MAAKIEDMETRIEALMDVMRVPPGKKINLKKDYDPGFTGKWMTKAEAKETLARGIQMLAEMQDKLWAQNQYAVLMNLQALDAAGKDGTIKHVMSGVNPQGVDVHSFKGPSSEEMDHDYLWRNFKALPSRGRIGIFNRSYYEEVLVVRVHPEFLASQQLPPKLKDKRIWRRRFEEINNFEKYLVDNGIVVIKFFLYVSKEAQKERFLRRTQLPEKNWKFSAADIKERAHWDDYIAAYEDMFNHTSTEWAPWYIVPADHKWFTRLAVAAVLYYTMEKLNLAYPTVSEEQKQALIAAKEELEREDSGPKDKAVVKAEEEEDADPQDPASNGEVPKDESKKESKKKGSKNR", "soluble on expression in E. coli": "not soluble"}
{"sequence": "MAAKKDYYAILGVPRNATQEEIKRAYKRLARQYHPDVNKSPEAEEKFKEINEAYAVLSDPEKRRIYDTYGTTEAPPPPPPGGYDFSGFDVEDFSEFFQELFGPGLFGGFGRRSRKGRDLRAELPLTLEEAFHGGERVVEVAGRRVSVRIPPGVREGSVIRVPGMGGQGNPPGDLLLVVRLLPHPVFRLEGQDLYATLDVPAPIAVVGGKVRAMTLEGPVEVAVPPRTQAGRKLRLKGKGFPGPAGRGDLYLEVRITIPERLTPEEEALWKKLAEAYYARA", "soluble on expression in E. coli": "soluble"}
{"sequence": "MAALVDLVNFQLENAKALSTVLRQETQAITARVSSEIESIAKRKMTLIDQLRTTDQRIASHPHVNQLTEDEHLSQVVAQIQSIVLDCQQVNRVNGESLSRAQLSFNKLNNMLQHTHGKIGMTYNAGGKTHTISTLGTNIKA", "soluble on expression in E. coli": "not soluble"}
{"sequence": "MAAPASSATLPSVLQLTANTSAGGKRPSRAVTMPALKQAAKAAAAAPSPSPSFHVFADLPDHLLCSPDNSVWVYAQHTLSFLTSEAAAQAKLGRKVQRMMREAQRQYDISCAFFHSMSSDEQMAEVLRVGSGGGALSLPPAMTAATGTPAKSDRKRLTGVHRALRDAWPTWRGPNMSDAANSLTAREVGGAGESESSENRYSAGLRVNIVLDIVASRKTLRTVPLRSRPYRLAEYLYQLVMQPSATQRATAAPALGDMASHVRSLIIGISDADTTLVGCHIVCPYRHLTSPTPMMMRLRRAIEGAADQERARALAAAEAANTTVSGLDTQWQASSAAAAAEAAASDAAPSPLRSLVASHLAHYRRVDALFPAPYVRVPPQSLEQIDQNRLILCTPGKLLDG", "soluble on expression in E. coli": "not soluble"}
{"sequence": "MAASPLVVQKTEEEWRAVLSPEQFRILRQKGTEKPGTGEYDKFFEEGIFDCVGCKTPLYKSTTKFDSGCGWPAFFEGLPGAINRTPDPDGRRTEITCAACDGHLGHVFKGEGYGNPTDERHCVNSVSISFNPAKSSSII", "soluble on expression in E. coli": "soluble"}
{"sequence": "MAATQEEIVAGLAEIVNEIAGIPVEDVKLDKSFTDDLDVDSLSMVEVVVAAEERFDVKIPDDDVKNLKTVGDATKYILDHQA", "soluble on expression in E. coli": "soluble"}
{"sequence": "MAAWFECKVTYEKVADNGMPKKVVESYLVDADSFTLAEAKMIEEITPFVSMGEFNISNIRKVNYAELFLNEDDKCDRYYRCKVLYVTIDEKNGVEKKTPAFMLVKSDSLPNAVAELEKQMGKGLADYEIASVAETALMDVFQYVPAQ", "soluble on expression in E. coli": "not soluble"}
{"sequence": "MADKLFSIRNYFFLGSYQSCIGEALKFSSKNEEEKQEKDVYLYRSYIAQGQAFIPLKEIPAATKSADLAAVRRYAEFRNNPAAKKKILAEVQEEVASRNIKSEIAAVLAATILNEADLSQDAFRAVSRFEGLEARASKVFILIKMNKRKLAIGEVKKMNQIDEDATLSQLANALVTSFGASGKVKDALYIYSEMSDKYGRTTDLEMHQAVVSILTQDYAAAEELLESALERDNKDADVLINSIVSAQLNEKDDDVVERFISQLKHEHPNHPWVIDFNEKEAEFDRVASDSRA", "soluble on expression in E. coli": "not soluble"}
{"sequence": "MADNINESEIIERLNSAPSVRGFFIATVDVFNESIDGLIQRIFRKDNFAVQSVVGPLLQDSGPLGDLSVRLKLLFGLGVLPDDIYHDIEDIIKLKNHLNSDASDYEFTDPNILEPIKKLHLVKKMGMVQLEVNEPDDDIDLEFYQLQLQRQQQIIKSGLSLAIVEICNELGK", "soluble on expression in E. coli": "soluble"}
{"sequence": "MADPPPNPSSVPPNGNLTGTPSAGNAAAVAPMAHEKDRQSKEGDEIVTKSGKKYKLGPVLGEGGYGTVFLSQDDDIKIAVIAVSCFPYIIVQNEVWFKEQKKHHVIHVVHNFSSKLLVNTTKYSRSSTVMRFNLHLITRKSTNYLWRLEKNANFVIVKTGIGKMKQSRPLSPQSLHSLIKNFAPRLTNSQKRRVLVLIFLISWSPISLPFLCTSISHHELIGINVLIKKIYVLQYFLNI", "soluble on expression in E. coli": "not soluble"}
{"sequence": "MADRQLLHTAHIPVRWGDMDSYGHVNNTLYFQYLEEARVAWFETLGIDLEGAAEGPVVLQSLHTYLKPVVHPATVVVELYAGRLGTSSLVLEHRLHTLEDPQGTYGEGHCKLVWVRHAENRSTPVPDSIRAAIA", "soluble on expression in E. coli": "soluble"}
{"sequence": "MAEARPDSLTRSRAAKPAGEGAAFSPLYRQIKELLVQSLDRGEWKPGELIPSEIDLAARFQVSQGTVRKAVDELAAEHLLLRRQGKGTFVATHHEARVRYRFLRLAPDEEGEGGRAESRILECRRLRAPAEIARALELRAGETVVTIRRQLSMNHMPTVIDDLWLPGTHFRGLTLELLTASKAPLYGLFESEFGVSMVRADEKLRAVAASPEIAPLLGVEPGRPLLQVDRISYTYGDRPMEVRRGLYLTDHYHYRNSLN", "soluble on expression in E. coli": "soluble"}
{"sequence": "MAEDEIVVEEEQSQPQEITPVPPSSSSSPSLVVEDDDEMKLKHLEFIQVAAVYFAACFSTLYELAKDNAGPLKLGVENIEDCVRTVLAPLYEKFHDVPFKLLLFVDRKVDDVFFDVETYVPSLVKQASSQALTVATEVQRTGVVDTTKSIARSVRDKYEPAAEYYAATLWRLLNQLPLFPEVAHLVIPTAFYWSEKYNDAVRYVGDRDYFGAEYLPMIPIEKISDILEQDQCRAD", "soluble on expression in E. coli": "not soluble"}
{"sequence": "MAEEIQMYDDAASVAFIRNFIPQELKEKMTDDDIVYIVDLIYDFYESRGFMDMAEDSEETVEVDEDELVEYVVKNAARDEVGHFSADEIRFVVQGELEYCESINLFEED", "soluble on expression in E. coli": "not soluble"}
{"sequence": "MAELISKEGNKVEFKVSVPAAEVNRAYDQVWAGLARDVRVPGFRPGKAPRKVIENRVGKGYVESQVRDRLLETHYSQGLRELGLNLVDATVDPQDVQSGQAFEFTVKGETYP", "soluble on expression in E. coli": "soluble"}
